The target in one assay is T1, GST-SHP-1.SH2(N + C) (Mus musculus, UniProt P29351).
T1 construct: Using recombinant soluble tandem SH2 domains of SHP-1 and SHP-2; made in house; host or cells: E. coli DH5α
T1 sequence (P29351 1-213 limits assumed): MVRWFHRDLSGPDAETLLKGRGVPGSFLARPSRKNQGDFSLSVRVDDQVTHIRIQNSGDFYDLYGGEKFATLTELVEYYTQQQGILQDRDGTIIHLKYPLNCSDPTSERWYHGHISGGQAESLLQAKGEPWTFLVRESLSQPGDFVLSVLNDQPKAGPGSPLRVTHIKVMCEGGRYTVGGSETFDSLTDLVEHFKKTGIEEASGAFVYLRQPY
In words: Surface plasmon resonance (BIAcore), SHP-1 tandem SH2 domains. The format is binding, murine. The following applies: for koff / kon: 25 RU phosphorylated peptide immobilized, 5 μl/min. On the procedure:
(§1) Surface plasmon resonance measurements were performed on a BIAcore apparatus (BIAcore). The GST-SHP1.SH2(NC), GST-SHP2.SH2(NC) and GST-SHIP.SH2 fusion proteins generated from the murine phosphatase cDNAs, were purified from DH5α lysates as previously described. Before their use in BIAcore experiments, fusion proteins were dialyzed in HBS buffer pH 7.4 (10 mM HEPES, 150 mM NaCl, 3.4 mM EDTA). Protein purity was assessed by 12.5% SDS-PAGE, and Coomassie blue staining. The running buffer used in all BIAcore experiments consisted of HBS buffer supplemented with 0.05% surfactant P20. Equilibrium constant determination (koff and kon) was performed using BIAevaluation 2.0 software. The equilibrium dissociation constants KD were calculated from the koff/kon ratio.
(§2) Results are illustrated by FIG. 16 showing the BIAcore analysis of NKG2A ITIM interaction with the SH2 domains of SHP-1, SHP-2 and SHIP phosphatases. In FIG. 16, the binding of 100 nM soluble recombinant GST-SHP-1.SH2(N+C), GST-SHP-2.SH2(N+C) or GST-SHIP.SH2 to immobilized NKG2A/B phosphorylated ITIM peptides (25 RU) was monitored by real-time analysis using surface plasmon resonance. Results are expressed as corrected resonance units (CRU) corresponding to the raw RU values after subtraction of background RU value due to the injection medium.
(§3) The measurement of phosphorylated peptide binding to GST-SHP-1.SH2(N+C) and GST-SHP-2.SH2(N+C) fusion proteins was performed at a constant 5 μl/min flow rate. In this representative experiment, 25 RU of phosphorylated NKG2A N-term and NKG2A C-term peptides were immobilized on streptavidin microchips. The regeneration was performed using HBS buffer supplemented with 0.03% SDS. Results are expressed as corrected resonance units (CRU) corresponding to the raw RU values after subtraction of background RU value due to the injection medium, koff and kon were calculated from three independent measurements using the BIAevaluation 2.0 software. In addition, kon was calculated as the slope of the curve kg=kon×c−koff, where koff is the off-rate constant and c is the concentration of the soluble recombinant GST fusion proteins. By plotting kg as a function of c, a linear regression fit was obtained (r^2>0.98) for the binding of NKG2A ITIM N- and C-term to SHP-1 and SHP-2 tandem SH2 domains. This linear representation allows to check on the validity of the single step interaction and to confirm the determination of the kon constant using non-linear analysis (BIAevaluation software).

The next assay addresses T2, GST-SHP-2.SH2(N + C) (Mus musculus, UniProt P35235).
T2 construct: Using recombinant soluble tandem SH2 domains of SHP-1 and SHP-2; made in house; host or cells: E. coli DH5α
T2 sequence (P35235 1-216 limits assumed): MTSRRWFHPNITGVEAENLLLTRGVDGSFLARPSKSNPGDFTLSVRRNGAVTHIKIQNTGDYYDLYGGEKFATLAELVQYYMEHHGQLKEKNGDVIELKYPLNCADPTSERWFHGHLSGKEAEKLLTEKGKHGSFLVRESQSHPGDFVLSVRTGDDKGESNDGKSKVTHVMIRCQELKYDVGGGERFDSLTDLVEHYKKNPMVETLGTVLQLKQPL
In words: Surface plasmon resonance (BIAcore), SHP-2 tandem SH2 domains. Type of assay: binding, murine. The following applies: for koff / kon: 25 RU phosphorylated peptide immobilized, 5 μl/min. On the procedure:
as §1, §2, §3
On the technique in general: SPR reads the build-up and loss of mass on a sensor chip optically.

Assay [1] deals with human p58.2 KIR (CD158b), HLA-Cw3-specific killer-cell inhibitory receptor (human) (UniProt P43628). Briefly: cell-based or functional assay.
Assay [2] has as its target phosphorylated p58.2.2 peptide (C-terminal KIR ITIM) (human). Briefly: SPR (BIAcore), phosphopeptide on streptavidin chip, GST fusion injected.
Assay [3] deals with phosphorylated p58.2.1 peptide (N-terminal KIR ITIM) (human). The assay is described as above.
For assay [4], the target named is T3, SHIP polyinositol phosphatase from RBL-2H3 cell lysates (rat (cell line RBL-2H3), UniProt P97573 1-1190, limits assumed).
T3 construct: Detected by immunoblot with anti-SHIP antiserum
T3 sequence (looked up): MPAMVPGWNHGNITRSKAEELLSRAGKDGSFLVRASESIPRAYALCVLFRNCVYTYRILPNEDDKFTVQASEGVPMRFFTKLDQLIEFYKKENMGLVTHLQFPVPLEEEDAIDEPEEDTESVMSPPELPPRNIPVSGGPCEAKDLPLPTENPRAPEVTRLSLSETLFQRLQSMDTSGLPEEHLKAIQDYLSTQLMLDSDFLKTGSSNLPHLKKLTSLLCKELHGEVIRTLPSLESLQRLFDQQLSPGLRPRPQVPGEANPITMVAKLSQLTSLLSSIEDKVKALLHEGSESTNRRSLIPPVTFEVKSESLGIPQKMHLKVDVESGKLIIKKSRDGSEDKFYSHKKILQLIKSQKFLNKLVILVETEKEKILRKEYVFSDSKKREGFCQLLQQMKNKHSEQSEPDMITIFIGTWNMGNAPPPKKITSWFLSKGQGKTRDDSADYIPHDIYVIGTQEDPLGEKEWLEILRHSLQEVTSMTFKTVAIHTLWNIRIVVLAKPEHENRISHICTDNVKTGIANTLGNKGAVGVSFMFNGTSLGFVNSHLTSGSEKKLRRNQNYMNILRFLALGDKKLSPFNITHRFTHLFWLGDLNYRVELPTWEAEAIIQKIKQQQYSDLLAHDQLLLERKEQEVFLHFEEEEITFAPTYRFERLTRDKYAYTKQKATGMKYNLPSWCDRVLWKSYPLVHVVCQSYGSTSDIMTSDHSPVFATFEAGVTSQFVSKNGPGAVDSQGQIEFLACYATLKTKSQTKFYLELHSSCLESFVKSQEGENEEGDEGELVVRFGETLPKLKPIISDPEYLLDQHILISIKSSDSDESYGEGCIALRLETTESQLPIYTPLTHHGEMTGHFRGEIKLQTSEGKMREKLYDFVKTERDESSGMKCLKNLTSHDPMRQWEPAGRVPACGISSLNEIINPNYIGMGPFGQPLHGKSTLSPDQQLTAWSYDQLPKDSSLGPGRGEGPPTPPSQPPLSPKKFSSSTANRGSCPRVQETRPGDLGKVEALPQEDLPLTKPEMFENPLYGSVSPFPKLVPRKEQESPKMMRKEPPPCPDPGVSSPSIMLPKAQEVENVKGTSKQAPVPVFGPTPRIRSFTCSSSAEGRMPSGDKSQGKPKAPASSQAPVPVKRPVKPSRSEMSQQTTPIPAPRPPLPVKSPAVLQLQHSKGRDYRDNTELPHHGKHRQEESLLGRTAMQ
In words: cell lysate adsorption to peptide beads, immunoblot (RBL-2H3), FIG. 15A. On the procedure:
In an attempt to characterize the function of these putative ITIMs, cell lysates were incubated with phosphorylated and nonphosphorylated synthetic peptides corresponding to the N-terminal and the C-terminal I/VxYxxL stretches present in NKG2A intracytoplasmic domain. Cell lysates absorbed to peptides were then assayed by immunoblotting for the presence of the phosphatases known to interact with phosphorylated ITIMs, i.e. the protein tyrosine phosphatases SHP-1 and SHP-2, as well as the polyinositol phosphate phosphatase, SHIP. In parallel, lysates adsorption were performed using control peptides corresponding to ITIMs present in Ig-like ITIM bearing receptors such as human KIRs (p58.2/CD158b, a receptor for HLA-Cw3) and mouse FcγRIIB, as well as in mouse lectin-like ITIM-bearing receptor, such as Ly-49A.
As shown in FIG. 15A (lanes 1 and 2), both N- and C-terminal I/VxYxxL stretches present in NKG2A associate with SHP-1 and SHP-2 in vitro, but no binding to SHIP was detected. Similar patterns of association were obtained using the phosphorylated ITIM peptides of […] and p58.2 KIR (FIG. 15A, lanes 3 to 5). In contrast, FcγRIIB phosphorylated ITIM peptides also associate with SHIP (FIG. 15A, lane 6). No association of phosphatases with nonphosphorylated peptides corresponding to FcγRIIB (FIG. 15A, lane 7) and NKG2A N- and C-terminal I/VxYxxL stretches was detected. When nonphosphorylated and phosphorylated peptides were used to adsorb lysates prepared from ³⁵S methionine/cysteine-labeled cells, only two bands around 64 and 68 kDa selectively associate with both phosphorylated NKG2A N- and C-terminal I/VxYxxL stretches, as compared to nonphosphorylated ones (FIG. 15B). The 64 and 68 kDa proteins which bind to phosphorylated NKG2A peptides correspond to SHP-1 and SHP-2 apparent molecular weight respectively, supporting the immunoblotting results. Therefore, our results define the two NKG2A I/VxYxxL stretches as ITIMs which appear to function similarly to other ITIMs present in inhibitory receptors for MHC class I molecules, i.e. KIRs and Ly-49 molecules. Using recombinant soluble tandem SH2 domains of SHP-1 and SHP-2, we confirmed by surface plasmon resonance that both NKG2A ITIM phosphopeptides directly associate with the SH2 domains of SHP-1 and SHP-2, but not with the SH2 domain of SHIP (FIG. 16).
For orientation: In western blotting, separated proteins are transferred to a membrane and probed.

[5] abbreviates: calculated from the koff/kon ratio.

Where a SMILES comes first, the peptide text is derived from it. Where no end group is shown, it is not given here. [ ]: non-standard residue; d: D form. The star is where a group is joined. Biotin = O=C1N[C@H]2[C@H](CS[C@H]2CCCCC(=O)*)N1; pY = N[C@@H](Cc1ccc(OP(=O)(O)O)cc1)C(=O)O

The values that follow come from patent US20040038894A1, “Compounds for modulating cell negative regulations and biological applications thereof” (INSTITUT NATIONAL DE LA SANTE ET DE LA RECHERCHE MEDICALE …, priority 1996, published 2004).

Chain of human p58.2 KIR (CD158b), HLA-Cw3-specific killer-cell inhibitory receptor (human) (P43628 22-341): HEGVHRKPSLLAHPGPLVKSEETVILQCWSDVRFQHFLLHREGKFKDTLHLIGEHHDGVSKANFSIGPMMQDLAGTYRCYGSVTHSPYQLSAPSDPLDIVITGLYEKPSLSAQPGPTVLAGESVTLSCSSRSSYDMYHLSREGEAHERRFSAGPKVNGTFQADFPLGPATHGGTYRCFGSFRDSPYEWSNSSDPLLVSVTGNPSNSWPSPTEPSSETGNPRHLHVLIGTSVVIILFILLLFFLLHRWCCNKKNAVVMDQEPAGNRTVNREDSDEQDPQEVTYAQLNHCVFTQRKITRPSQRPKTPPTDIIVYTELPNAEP
Chain of phosphorylated p58.2.2 peptide (C-terminal KIR ITIM) (human) (peptide, as listed by the source): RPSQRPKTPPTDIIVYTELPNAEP

In general, koff refers to the rate constant with which the complex falls apart. As a reminder, the kon is the second-order rate constant of association. For `CC[C@H](C)[C@H](NC(=O)CCCC[C@@H]1SC[C@@H]2NC(=O)N[C@@H]21)C(=O)N[C@@H](CC(C)C)C(=O)N[C@@H](C)C(=O)N[C@H](C(=O)N[C@@H](CCC(=O)O)C(=O)N[C@@H](CCC(N)=O)C(=O)N[C@@H](CCC(=O)O)C(=O)N[C@H](C(=O)N[C@H](C(=O)N[C@@H](Cc1ccc(OP(=O)(O)O)cc1)C(=O)N[C@@H](C)C(=O)N[C@@H](CCC(=O)O)C(=O)N[C@@H](CC(C)C)C(=O)N[C@@H](CC(N)=O)C(=O)N[C@@H](CC(C)C)C(=O)O)[C@@H](C)O)[C@@H](C)CC)[C@@H](C)O` [NKG2-A C-terminal ITIM, ILATEQEIT40 AELNL] (HELM PEPTIDE1{[O=C1N[C@H]2[C@H](CS[C@H]2CCCCC(=O)[*:2])N1].I.L.A.T.E.Q.E.I.T.[O=C([C@H](Cc1ccc(OP(=O)(O)O)cc1)N[*:1])[*:2]].A.E.L.N.L}$$$$V2.0; N-terminus and C-terminus assumed), the koff on GST-SHP-1.SH2(N + C) was determined as 0.00117 s⁻¹; at GST-SHP-2.SH2(N + C), 0.00132 s⁻¹. For the same molecule, the kon on GST-SHP-1.SH2(N + C) was 410000 M⁻¹ s⁻¹; at GST-SHP-2.SH2(N + C) it was 840000 M⁻¹ s⁻¹.
Usually Kd stands for the constant that tells how readily two partners part at equilibrium. Consider `CC[C@H](C)[C@H](NC(=O)[C@@H](NC(=O)CNC(=O)[C@H](CCC(N)=O)NC(=O)[C@H](CC(N)=O)NC(=O)[C@H](CC(=O)O)NC(=O)[C@H](CCSC)NC(=O)CCCC[C@@H]1SC[C@@H]2NC(=O)N[C@@H]21)C(C)C)C(=O)N[C@@H](Cc1ccc(OP(=O)(O)O)cc1)C(=O)N[C@@H](CO)C(=O)N[C@@H](CC(=O)O)C(=O)N[C@@H](CC(C)C)C(=O)N[C@@H](CC(N)=O)C(=O)N[C@@H](CC(C)C)C(=O)O` [NKG2-A N-terminal ITIM, MDNQGVIY8 SDLNL] (HELM PEPTIDE1{[O=C1N[C@H]2[C@H](CS[C@H]2CCCCC(=O)[*:2])N1].M.D.N.Q.G.V.I.[O=C([C@H](Cc1ccc(OP(=O)(O)O)cc1)N[*:1])[*:2]].S.D.L.N.L}$$$$V2.0), for which the koff at GST-SHP-1.SH2(N + C) came out at 0.00189 s⁻¹; at GST-SHP-2.SH2(N + C) it was 0.00142 s⁻¹. Also, the figures for the kon on GST-SHP-1.SH2(N + C) and at GST-SHP-2.SH2(N + C) were 390000 M⁻¹ s⁻¹ and 1.03e+06 M⁻¹ s⁻¹, respectively. The dissociation constant Kd at GST-SHP-1.SH2(N + C) (setting [5]) was 4.8 nM; on GST-SHP-2.SH2(N + C) (setting [5]), 1.38 nM.
In assay [1], GL183 F(ab')2 displayed an inhibition of CD25/CD3 zeta-induced serotonin release, RTIIBp58 B clone (GL183 1 µg/ml, anti-hCD25 3 µg/ml) of 39.3%; an inhibition of CD25/CD3 zeta-induced serotonin release, clone with unusually high CD25/CD3 zeta (GL183 F(ab')2 1 µg/ml) of 14.1%; an inhibition of FcεRI-induced serotonin release, first RTIIBp58 clone (GL183 1 µg/ml, IgE 10^-3 dilution, GAM) of 72.8%; an inhibition of FcεRI-induced serotonin release, second RTIIBp58 clone (GL183 1 µg/ml, IgE 10^-3 dilution, GAM) of 55.8%.
In the case of “GST-SHP-1.SH2(C) fusion protein (from UniProt P29351 107-217)”, in assay [2], the Kd is 545 nM, the dissociation rate constant (koff) was determined as 0.0003 s⁻¹ and the kon was found to be 600 M⁻¹ s⁻¹. In assay [3], the Kd came to 137 nM, the koff turned out to be 0.0007 s⁻¹ and the kon came out at 5000 M⁻¹ s⁻¹.
As to “GST-SHP-1.SH2(N) fusion protein (from UniProt P29351 1-106)”, in assay [2], the dissociation constant Kd is 3160 nM, the koff was found to be 0.025 s⁻¹ and the kon is 8000 M⁻¹ s⁻¹. In assay [3], this molecule came in with a Kd of 423 nM, a koff of 0.042 s⁻¹ and a kon of 100000 M⁻¹ s⁻¹.
With Biotin-MSEQEVT[pY]SMVRF (also called Ly-19A) [phosphorylated Ly-49A ITIM peptide], the binding result in assay [4] is given as “no binding”.
